Article PMC4968227

Target: T1, PARK7, endogenous in SN4741 cells (mouse (endogenous in SN4741)), Q99LX0
T1 chain: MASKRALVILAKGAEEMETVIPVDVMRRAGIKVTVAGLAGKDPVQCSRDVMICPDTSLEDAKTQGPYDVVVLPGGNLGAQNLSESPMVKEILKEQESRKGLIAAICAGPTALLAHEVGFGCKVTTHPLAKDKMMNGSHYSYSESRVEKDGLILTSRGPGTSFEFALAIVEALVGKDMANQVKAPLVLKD
Assay: cross-linking
Settings: remark: other sources report otherwise

stoichiometry N: 2
B1: PARK7, endogenous in SN4741 cells, Q99LX0 1-189 (natural protein)
chain: MASKRALVILAKGAEEMETVIPVDVMRRAGIKVTVAGLAGKDPVQCSRDVMICPDTSLEDAKTQGPYDVVVLPGGNLGAQNLSESPMVKEILKEQESRKGLIAAICAGPTALLAHEVGFGCKVTTHPLAKDKMMNGSHYSYSESRVEKDGLILTSRGPGTSFEFALAIVEALVGKDMANQVKAPLVLKD
